The source of these data is patent publication US20220251174A1 (published 2022).

The assay concerns the target SARS-CoV-2 Spike S2-hFc (SARS-CoV-2, UniProt P0DTC2 686-1213). As to the kind of experiment: Octet BLI; Fab analyte over S2-hFc on AHC sensors; steady-state analysis. (In general: BLI is a label-free optical method that tracks binding on a fibre tip over time.)

Procedure: All label-free interaction analysis was performed on an Octet HTX biolayer interferometry-based detection system (ForteBio/Sartorius, Göttingen, Germany) equipped with various sensor types; AR (amine-reactive), SAX (streptavidin-coated), or AHC (anti-human-Fc capture) sensors. Experiments were conducted at 25° C. in a run buffer of PBS containing 0.05% Tween™-20 and 0.5 mg/mL BSA.
Binding affinity estimates. Different assay formats were used to estimate the binding affinities of Ab/target bimolecular interactions. In one assay format, Fab was titrated as monovalent analyte (typically as a 3-fold series with a top concentration of 3 μM, and at least one concentration in duplicate) over AHC sensors coated with human-Fc-fused targets RBD-hFc, S1-hFc or S2-hFc as ligands (Sino Biological). […] Global affinity estimates were determined using the Kinetics module of Fortebio's Data Analysis HT software version 12.0.1.55. Data were processed by subtracting the responses of a buffer analyte sample and fitting these referenced data globally to a simple 1:1 Langmuir binding model to deduce the KD value from the ratio of the kinetic rate constants (KD=kd/kₐ), where kd and kₐ are the dissociation and association rate constants, respectively. […] All samples were measured on duplicate sensors.

B1: 2-A6 Fab (Fab, V domains shown)
VH: QVTLRESGPALVKPTQTLTLTCTFSGFSLNTRGMSVSWIRQPPGKALEWLALIDWEDDKFYRTSLMTRLTISKDIFKNQVVLTMTNVDPVDTGTYYCARTYSVGVKYFGMDVWGQGTTVTVSS
VL: SSELTQDPAVSVALGQTVRITCQGDSLRNYYASWYRQEPGQAPILLIYGGNYRPSGIPDRFSGSSSGNTASLTITGAQAEDEADYYCNSRDSSGNHVVFGGGTKLTVL
For orientation: Kd means the equilibrium constant for the complex coming apart. High values mean a looser complex, low ones a tighter complex. B1 displayed a Kd of 913 nM.
